From the supplement of paper PMC9112550, “Optimization of the antimicrobial peptide Bac7 by deep mutational scanning” (BMC Biology, 2022)

The sequences below were run on Escherichia coli TOP10 (assay: shrunken log2 fold change of peptide-encoding DNA abundance (4.5 h post-induction vs induction); higher = less antimicrobial activity (less host growth inhibition)). Conditions: time post-induction: 4.5 h; library: site-saturation at positions 5, 18, 19, 20.
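Further: peptides expressed intracellularly from a pBAD plasmid library in pooled LB shake-flask culture, induced with 0.3% L-arabinose, DNA abundance read by NGS, three biological replicates, DESeq2 with apeglm shrinkage.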

In order of rising “shrunken log2 fold change” value:
1. RRIRIRPPRLPRPRPRPYCMPRP  -1.34
2. RRIRCRPPRLPRPRPRPYQMPRP  -1.3
3. RRIRLRPPRLPRPRPRPQFSPRP  -0.907
4. RRIRSRPPRLPRPRPRPPYHPRP  -0.584
5. RRIRERPPRLPRPRPRPYQMPRP  -0.448
6. RRIRIRPPRLPRPRPRPLFPPRP  -0.42
7. RRIRTRPPRLPRPRPRPQKNPRP  -0.419
8. RRIRIRPPRLPRPRPRPAFYPRP  -0.387
9. RRIRRRPPRLPRPRPRPLDHPRP  -0.357
10. RRIRERPPRLPRPRPRPSYDPRP  -0.301
11. RRIRYRPPRLPRPRPRPQKMPRP  -0.295
12. RRIRFRPPRLPRPRPRPRFKPRP  -0.281
13. RRIRVRPPRLPRPRPRPWDDPRP  -0.27
14. RRIRIRPPRLPRPRPRPTCYPRP  -0.266
15. RRIRHRPPRLPRPRPRPYFWPRP  -0.258
16. RRIRIRPPRLPRPRPRPWYVPRP  -0.247
17. RRIRIRPPRLPRPRPRPYSAPRP  -0.221
18. RRIRLRPPRLPRPRPRPWFEPRP  -0.218
19. RRIRYRPPRLPRPRPRPQFRPRP  -0.18
20. RRIRIRPPRLPRPRPRPFNKPRP  -0.179
21. RRIRLRPPRLPRPRPRPYGPPRP  -0.161
22. RRIRARPPRLPRPRPRPYWTPRP  -0.16
23. RRIRFRPPRLPRPRPRPQICPRP  -0.135
24. RRIRCRPPRLPRPRPRPSGSPRP  -0.125
25. RRIRERPPRLPRPRPRPIHCPRP  -0.118
26. RRIRTRPPRLPRPRPRPANDPRP  -0.116
27. RRIRDRPPRLPRPRPRPLDLPRP  -0.116
28. RRIRCRPPRLPRPRPRPVRIPRP  -0.108
29. RRIRPRPPRLPRPRPRPDFVPRP  -0.107
30. RRIRCRPPRLPRPRPRPDRIPRP  -0.0911
31. RRIRHRPPRLPRPRPRPQWYPRP  -0.0605
32. RRIRRRPPRLPRPRPRPAHRPRP  -0.059
33. RRIRTRPPRLPRPRPRPVMVPRP  -0.0537
34. RRIRQRPPRLPRPRPRPEFPPRP  -0.0498
35. RRIRCRPPRLPRPRPRPMAKPRP  -0.0415
36. RRIRNRPPRLPRPRPRPSAKPRP  -0.0395
37. RRIRSRPPRLPRPRPRPQRCPRP  -0.0342
38. RRIRYRPPRLPRPRPRPQTAPRP  -0.0183
39. RRIRDRPPRLPRPRPRPMTMPRP  -0.00418
40. RRIRQRPPRLPRPRPRPYVWPRP  -0.00378
41. RRIRMRPPRLPRPRPRPQRYPRP  -0.00185
42. RRIRERPPRLPRPRPRPEDYPRP  0.00235
43. RRIRTRPPRLPRPRPRPINCPRP  0.00543
44. RRIRYRPPRLPRPRPRPNMCPRP  0.00841
45. RRIRMRPPRLPRPRPRPVQNPRP  0.0136
46. RRIRTRPPRLPRPRPRPHWRPRP  0.027
47. RRIRWRPPRLPRPRPRPHGAPRP  0.0287
48. RRIRKRPPRLPRPRPRPYRKPRP  0.0413
49. RRIRWRPPRLPRPRPRPSLKPRP  0.0451
50. RRIRWRPPRLPRPRPRPTWIPRP  0.0497
51. RRIRCRPPRLPRPRPRPNRCPRP  0.053
52. RRIRARPPRLPRPRPRPAQTPRP  0.057
53. RRIRDRPPRLPRPRPRPYMWPRP  0.0589
54. RRIRMRPPRLPRPRPRPFQPPRP  0.0604
55. RRIRDRPPRLPRPRPRPMNVPRP  0.0651
56. RRIRRRPPRLPRPRPRPFWIPRP  0.0724
57. RRIRPRPPRLPRPRPRPWRNPRP  0.0809
58. RRIRRRPPRLPRPRPRPCYEPRP  0.107
59. RRIRQRPPRLPRPRPRPRRYPRP  0.112
60. RRIRCRPPRLPRPRPRPPCGPRP  0.142
61. RRIRKRPPRLPRPRPRPELFPRP  0.155
62. RRIRHRPPRLPRPRPRPPVWPRP  0.156
63. RRIRRRPPRLPRPRPRPHQMPRP  0.19
64. RRIRARPPRLPRPRPRPLKTPRP  0.219
65. RRIRTRPPRLPRPRPRPTLDPRP  0.249
66. RRIRWRPPRLPRPRPRPFVAPRP  0.292
67. RRIRMRPPRLPRPRPRPAINPRP  0.321
68. RRIRARPPRLPRPRPRPMSPPRP  0.342
69. RRIRFRPPRLPRPRPRPVRVPRP  0.349
70. RRIRWRPPRLPRPRPRPFGEPRP  0.439
71. RRIRCRPPRLPRPRPRPEPQPRP  0.468
72. RRIRDRPPRLPRPRPRPPLGPRP  0.547
73. RRIRARPPRLPRPRPRPKLAPRP  0.555
74. RRIRARPPRLPRPRPRPGRVPRP  0.612
75. RRIRGRPPRLPRPRPRPAVEPRP  1.21
